Source: paper doi:10.1101/2020.12.03.409334

Target: 4R1N tau::mCherry::Cry2Olig chimera (UniProt P10636)
Assay: native gel or EMSA

## 4R1N tau::mCherry::Cry2Olig chimera (from UniProt P10636-7 1-412)
  stoichiometry N: 2
